Experimental data as given in patent US20230293647A1.

Legend:
[1] = biological target: recombinant full length SARS-CoV-2 spike protein (SARS-CoV-2) (UniProt P0DTC2)
[2] = biological target: FcγR on K562 cells (reported to express RNA for FcγRIIa and IIIa/b)

Row | Substance | EC50 (read off the curve) [1] | EC50 (read off the curve) [2]
1 | ACE2-CR3022 scFv-Fc (from UniProt Q9BYF1 18-740) (Fc fusion) | 0.09 nM | –
2 | CR3022 scFv-ACE2-Fc (from UniProt Q9BYF1 18-740) (Fc fusion) | 0.06 nM | –
3 | Inactive ACE2 (HH:NN) (18-740)-Fc (Fc fusion) | – | 40 nM
